# Starred links: 1 amine or outer side, 2 acyl side, 3 side chain; linkers in the order of their positions; H or OH if unused. Positions of bridges follow the written chain, without caps; N, C: chain ends. Non-standard residues stand in square brackets, D forms with d. Primed or numbered codes have the meaning given here. No end group written: not given here. *: point of attachment. Tyr(OMe)″ = O-methyl-tyrosine (Y-OMe, TyrOMe, O-Me-Tyr), COc1ccc(C[C@H](N[*:1])C(=O)[*:2])cc1; Tyr(Me)(4) = O-methyl-tyrosine (O-Me-Tyr, TyrMe), COc1ccc(C[C@H](N[*:1])C(=O)[*:2])cc1; Tyr(OMe) = O-methyl-tyrosine (O-Me-Tyr, Y-OMe), COc1ccc(C[C@H](N[*:1])C(=O)[*:2])cc1; Tyr(Me) = O-methyl-tyrosine (Y-OMe, O-Me-Tyr), COc1ccc(C[C@H](N[*:1])C(=O)[*:2])cc1; Tyr(Me)(3) = O-methyl-tyrosine (O-Me-Tyr), COc1ccc(C[C@H](N[*:1])C(=O)[*:2])cc1; Tyr(nHex) = O-n-hexyl-tyrosine, CCCCCCOc1ccc(C[C@H](N[*:1])C(=O)[*:2])cc1; Tyr(OMe)(3) = O-methyl-tyrosine, COc1ccc(C[C@H](N[*:1])C(=O)[*:2])cc1; Cys(β,β-pentamethylene) = O=C([C@@H](N[*:1])C1(S[*:3])CCCCC1)[*:2]; O‑Me‑Tyr = O-methyl-tyrosine, COc1ccc(C[C@H](N[*:1])C(=O)[*:2])cc1; Phe(4-NO2) = N[C@@H](Cc1ccc([N+](=O)[O-])cc1)C(=O)O; Tyr(3,5-I2) = N[C@@H](Cc1cc(I)c(O)c(I)c1)C(=O)O; Cyclohexylacetyl(1-SH) = O=C(CC1(S)CCCCC1)*; Phe(4-I) = N[C@@H](Cc1ccc(I)cc1)C(=O)O; 1Nal = N[C@@H](Cc1cccc2ccccc12)C(=O)O; Cha = N[C@@H](CC1CCCCC1)C(=O)O; dPen = CC(C)(S)[C@@H](N)C(=O)O; Pen = CC(C)(S)[C@H](N)C(=O)O; code O = not defined here; Orn = NCCC[C@H](N)C(=O)O
# B1: Ac(Pmc)GHRGD(O-Me-Tyr)RC-NH2 (peptide)
# peptide: Ac-[Cys(β,β-pentamethylene)]GHRGD[Tyr(OMe)]RC-NH2
# modifications: disulfide 1-9
# SMILES: COc1ccc(C[C@@H]2NC(=O)[C@H](CC(=O)O)NC(=O)CNC(=O)[C@H](CCCNC(=N)N)NC(=O)[C@H](Cc3c[nH]cn3)NC(=O)CNC(=O)[C@@H](NC(C)=O)C3(CCCCC3)SSC[C@@H](C(N)=O)NC(=O)[C@H](CCCNC(=N)N)NC2=O)cc1
# B2: K(Pen)GRGDTPCA (peptide)
# peptide: K[Pen]GRGDTPCA
# modifications: disulfide 2-9
# notes: 21 numbers stand for 20 rows, so none is assigned
# Target: T1, Vitronectin receptor (human, UniProt P06756 31-1048; P05106 27-788)
# T1 construct: mature; also called Vn-R; VnR
# Assay: competition, ELISA or liposome assay, vitronectin coated
# T1 sequence (P06756 31-1048, chain 1 of 2): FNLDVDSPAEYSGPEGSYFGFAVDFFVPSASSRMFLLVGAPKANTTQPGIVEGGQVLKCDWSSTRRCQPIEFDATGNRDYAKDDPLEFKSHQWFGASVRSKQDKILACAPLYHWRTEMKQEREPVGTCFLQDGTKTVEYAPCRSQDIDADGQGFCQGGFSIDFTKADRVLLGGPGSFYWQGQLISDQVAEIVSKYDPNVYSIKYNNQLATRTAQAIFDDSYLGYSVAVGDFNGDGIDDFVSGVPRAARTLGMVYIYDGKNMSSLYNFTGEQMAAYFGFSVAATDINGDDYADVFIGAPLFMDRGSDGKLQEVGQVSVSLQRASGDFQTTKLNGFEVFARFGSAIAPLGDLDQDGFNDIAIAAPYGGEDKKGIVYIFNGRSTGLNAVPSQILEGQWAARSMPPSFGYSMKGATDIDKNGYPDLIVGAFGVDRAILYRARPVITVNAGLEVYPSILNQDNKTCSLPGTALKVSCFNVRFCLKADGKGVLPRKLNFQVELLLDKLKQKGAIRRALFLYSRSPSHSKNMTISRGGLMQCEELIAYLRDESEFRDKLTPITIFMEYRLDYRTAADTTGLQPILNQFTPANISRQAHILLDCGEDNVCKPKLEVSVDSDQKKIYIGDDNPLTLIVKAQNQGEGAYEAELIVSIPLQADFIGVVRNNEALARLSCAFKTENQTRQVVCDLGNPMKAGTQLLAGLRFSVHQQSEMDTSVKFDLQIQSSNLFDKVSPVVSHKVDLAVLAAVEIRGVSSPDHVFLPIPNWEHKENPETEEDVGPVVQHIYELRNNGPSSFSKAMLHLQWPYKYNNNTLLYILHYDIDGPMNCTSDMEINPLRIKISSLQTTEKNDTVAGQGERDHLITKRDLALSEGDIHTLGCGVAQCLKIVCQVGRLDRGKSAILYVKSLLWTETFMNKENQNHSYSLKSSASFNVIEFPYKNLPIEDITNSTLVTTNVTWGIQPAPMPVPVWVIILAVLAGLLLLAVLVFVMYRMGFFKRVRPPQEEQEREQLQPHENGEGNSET
# T1 sequence (P05106 27-788, chain 2 of 2): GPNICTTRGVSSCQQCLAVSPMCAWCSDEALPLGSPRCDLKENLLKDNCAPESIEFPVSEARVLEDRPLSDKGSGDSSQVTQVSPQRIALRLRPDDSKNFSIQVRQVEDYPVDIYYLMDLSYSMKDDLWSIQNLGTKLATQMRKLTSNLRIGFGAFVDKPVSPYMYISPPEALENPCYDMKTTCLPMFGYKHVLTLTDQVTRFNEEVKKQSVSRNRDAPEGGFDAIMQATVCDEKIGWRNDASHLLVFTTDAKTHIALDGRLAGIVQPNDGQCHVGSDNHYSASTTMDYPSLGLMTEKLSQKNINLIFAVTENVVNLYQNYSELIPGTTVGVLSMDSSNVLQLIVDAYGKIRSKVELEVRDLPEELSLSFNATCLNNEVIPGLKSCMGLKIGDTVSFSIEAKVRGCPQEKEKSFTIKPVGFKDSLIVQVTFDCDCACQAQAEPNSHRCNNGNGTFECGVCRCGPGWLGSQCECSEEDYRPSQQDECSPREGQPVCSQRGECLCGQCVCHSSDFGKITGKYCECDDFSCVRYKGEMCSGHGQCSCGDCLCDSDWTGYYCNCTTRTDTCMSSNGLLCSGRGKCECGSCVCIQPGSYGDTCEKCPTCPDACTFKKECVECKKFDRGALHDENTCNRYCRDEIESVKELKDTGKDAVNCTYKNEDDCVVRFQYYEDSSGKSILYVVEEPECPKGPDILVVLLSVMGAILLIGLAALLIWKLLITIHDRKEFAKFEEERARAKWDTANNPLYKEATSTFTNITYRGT
row,Binder,IC50
1,R[Pen]GRGDTPCR (disulfide 2-9) [R(Pen)GRGDTPCR],0.01 µM
2,"R[Cys(β,β-pentamethylene)]GHRGDVRCR (disulfide 2-10; not fully specified; printed as R(Pmc)GHRGDVRCR) [R(Pmc)GHRGDVRCR]",2 µM
3,B1,10 µM
4,"R[Cys(β,β-pentamethylene)]GHRGD[Tyr(3,5-I2)]RCR (disulfide 2-10) [R(Pmc)GHRGD(3,5-diiodo-Tyr)RCR]",0.9 µM
5,"T[Cys(β,β-pentamethylene)]GHRGD[Tyr(OMe)(3)]RCR (disulfide 2-10; not fully specified; printed as T(Pmc)GHRGD(O-Me-Tyr)RCR) [T(Pmc)GHRGD(O-Me-Tyr)RCR]",10 µM
6,"R[Cys(β,β-pentamethylene)]GHRGD[Tyr(Me)]KCR (disulfide 2-10) [R(Pmc)GHRGD(O-Me-Tyr)KCR]",10 µM
7,"R[Cys(β,β-pentamethylene)]GHRGD[Phe(4-NO2)]KCR (disulfide 2-10) [R(Pmc)GHRGD(p-nitro-Phe)KCR]",10 µM
8,"R[Cys(β,β-pentamethylene)]GHRGD[Phe(4-I)]KCR (disulfide 2-10) [R(Pmc)GHRGD(p-iodo-Phe)KCR]",8 µM
9,"G[Cys(β,β-pentamethylene)]GHRGD[Tyr(Me)(3)]RCR (disulfide 2-10) [G(Pmc)GHRGD(O-Me-Tyr)RCR]",10 µM
10,G[Pen]FRGDSFCA (disulfide 2-9) [G(Pen)FRGDSFCA],0.05 µM
11,G[Pen]GRGDSFCA (disulfide 2-9) [G(Pen)GRGDSFCA],0.02 µM
12,R[Pen]GRGDTPCA (disulfide 2-9) [R(Pen)GRGDTPCA],0.03 µM
13,FRGDSPDG,0.04 µM
14,YRGDSPDG,0.08 µM
15,LRGDSPDG,0.2 µM
16,"R[Cys(β,β-pentamethylene)]GHRGD[Tyr(Me)(4)]RCR (disulfide 2-10; also: am-Pmp2 from racemic mixture) [R(am-Pmp)GHRGD(TyrMe)RCR]",1 µM
17,[Cyclohexylacetyl(1-SH)]GHRGDLRCA (disulfide 1-9) [(Pmp)GHRGDLRCA],10 µM

# Target: T2, Platelet glycoprotein IIb/IIIa (human, UniProt P08514 32-1039; P05106 27-788)
# Assay: cell-based or functional assay
Binder,"IC50, ADP-Stimulated Aggregation","IC50, Thrombin Stimulated Aggregation"
G[Pen]GRGDTPCA (disulfide 2-9) [G(Pen)GRGDTPCA],22.3 µM,–
R[Pen]GRGDWPCR (disulfide 2-9) [R(Pen)GRGDWPCR],–,0.53 µM
R[Pen]GRGDTPCR (disulfide 2-9) [R(Pen)GRGDTPCR],–,2 µM
G[Pen]LRGDSRCA (disulfide 2-9) [G(Pen)LRGDSRCA],41 µM,49 µM
G[Pen]LRGDTPCA (disulfide 2-9) [G(Pen)LRGDTPCA],86 µM,–
G[Pen]YRGDSPCA (disulfide 2-9) [G(Pen)YRGDSPCA],47 µM,–
[t‑butylAmino‑Pmp]GHRGDLRCA (disulfide 1-9; also: place of tert-butyl and chirality not given here) [(t-butylAmino-Pmp) GHRGDLRCA],130 µM,–
"R[Cys(β,β-pentamethylene)]RGD[Cha]CR (disulfide 2-7) [R(am-Pmp)RGD(Cha)CR]",< 200 µM,–
"R[Cys(β,β-pentamethylene)]GHRGDFRCR (disulfide 2-10 (inferred)) [R(Pmc)GHRGDFRCR]",0.62 µM,–
"R[Cys(β,β-pentamethylene)]GHRGDYRCR (disulfide 2-10) [R(Pmc)GHRGDYRCR]",1 µM,–
"R[Cys(β,β-pentamethylene)]GHRGDVRCR (disulfide 2-10; not fully specified; printed as R(Pmc)GHRGDVRCR) [R(Pmc)GHRGDVRCR]",0.69 µM,–
R[Pen]GRGDSRCA (disulfide 2-9) [R(Pen)GRGDSRCA],12 µM,12 µM
R[Pen]GHRGDTRCR (disulfide 2-10) [R(Pen)GHRGDTRCR],8.8 µM,–
R[Pen]GRGDLRCA (disulfide 2-9) [R(Pen)GRGDLRCA],16 µM,13 µM
G[Pen]FRGDSFCA (disulfide 2-9) [G(Pen)FRGDSFCA],< 200 µM,–
G[Pen]GRGDSFCA (disulfide 2-9) [G(Pen)GRGDSFCA],115 µM,–
G[Pen]LRGDSPCA (disulfide 2-9) [G(Pen)LRGDSPCA],415 µM,308 µM
R[Pen]GRGDTPCA (disulfide 2-9) [R(Pen)GRGDTPCA],7 µM,–
G[Pen]GRGDRPCA (disulfide 2-9) [G(Pen)GRGDRPCA],22.3 µM,–
R[Orn]GHRGDLRDR [R(orn)GHRGDLRDR],< 200 µM,–
FRGDSPDG,110 µM,–
LRGDSPDG,150 µM,–
G[Pen]GHRGDTRCA (disulfide 2-10) [G(Pen)GHRGDTRCA],11.3 µM,17 µM
L[Pen]GHRGDLRCA (disulfide 2-10) [L(Pen)GHRGDLRCA],10.5 µM,–
XGHRGDLRXA (not fully specified; t-but-am-Pmp at 1; Pen at 9) [(t-but-am-Pmp)GHRGDLR(Pen)A],89 µM,–

# Target: T2, Platelet glycoprotein IIb/IIIa
# Assay: competition, ELISA or liposome assay
row,Binder,IC50
1,"R[Cys(β,β-pentamethylene)]GHRGD[Tyr(Me)][code O]CR (disulfide 2-10; reading uncertain; also: printed as R(Pmc)GHRGD(O-Me-Tyr)OCR) [R(Pmc)GHRGD(O-Me-Tyr)OCR]",0.007 µM
2,"R[Cys(β,β-pentamethylene)]GHRGD[O‑Me‑Tyr]RCR (disulfide 2-10, also called R(Pmc)GHRGD(Y-OMe)RCR; 5O) [R(Pmc)GHRGD(O-Me-Tyr)RCR]",0.06 µM
3,"R[Cys(β,β-pentamethylene)]GHRGDWRCR (disulfide 2-10; not fully specified; printed as R(am-Pmp)GHRGDWRCR-1) [R(am-Pmp)GHRGDWRCR-1]",0.06 µM
4,B1,0.4 µM
5,"R[Cys(β,β-pentamethylene)]GHRGDLRCR (disulfide 2-10; not fully specified; printed as R(am-Pmp)GHRGDLRCR-1) [R(am-Pmp)GHRGDLRCR-1]",0.4 µM

# Target: T3, Fibronectin receptor (human, UniProt P08648 42-1049; P05556 21-798)
# T3 construct: mature; Purified on a 110 kd fibronectin fragment column; also called Fn-R; FnR
# Assay: competitive ELISA, fibronectin coated
# T3 sequence (P08648 42-1049, chain 1 of 2): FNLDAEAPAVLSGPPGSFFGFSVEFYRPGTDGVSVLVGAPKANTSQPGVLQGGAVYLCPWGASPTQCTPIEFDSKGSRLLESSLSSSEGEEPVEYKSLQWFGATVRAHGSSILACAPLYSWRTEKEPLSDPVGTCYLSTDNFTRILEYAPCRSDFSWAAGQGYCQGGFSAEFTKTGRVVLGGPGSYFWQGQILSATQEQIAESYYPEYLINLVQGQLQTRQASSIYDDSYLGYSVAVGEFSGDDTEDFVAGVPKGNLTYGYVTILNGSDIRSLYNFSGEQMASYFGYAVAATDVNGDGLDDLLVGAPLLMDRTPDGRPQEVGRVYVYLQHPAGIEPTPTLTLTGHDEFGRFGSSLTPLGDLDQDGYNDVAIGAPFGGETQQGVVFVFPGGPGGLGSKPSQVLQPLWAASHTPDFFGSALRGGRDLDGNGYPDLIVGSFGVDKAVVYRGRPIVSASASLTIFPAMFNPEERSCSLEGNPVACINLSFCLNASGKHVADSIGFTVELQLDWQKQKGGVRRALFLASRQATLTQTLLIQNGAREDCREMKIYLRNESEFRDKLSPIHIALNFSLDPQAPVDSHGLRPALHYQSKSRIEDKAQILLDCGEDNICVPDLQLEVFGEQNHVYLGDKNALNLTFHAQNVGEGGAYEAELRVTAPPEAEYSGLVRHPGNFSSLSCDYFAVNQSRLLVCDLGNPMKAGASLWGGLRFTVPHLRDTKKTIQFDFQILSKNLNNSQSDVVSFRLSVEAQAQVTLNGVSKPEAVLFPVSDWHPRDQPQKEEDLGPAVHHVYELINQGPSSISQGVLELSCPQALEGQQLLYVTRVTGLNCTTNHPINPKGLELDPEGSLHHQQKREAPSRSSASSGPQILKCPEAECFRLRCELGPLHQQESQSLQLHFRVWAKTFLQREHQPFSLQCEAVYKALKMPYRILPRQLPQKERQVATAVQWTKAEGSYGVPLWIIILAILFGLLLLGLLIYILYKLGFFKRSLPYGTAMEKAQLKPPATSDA
# T3 sequence (P05556 21-798, chain 2 of 2): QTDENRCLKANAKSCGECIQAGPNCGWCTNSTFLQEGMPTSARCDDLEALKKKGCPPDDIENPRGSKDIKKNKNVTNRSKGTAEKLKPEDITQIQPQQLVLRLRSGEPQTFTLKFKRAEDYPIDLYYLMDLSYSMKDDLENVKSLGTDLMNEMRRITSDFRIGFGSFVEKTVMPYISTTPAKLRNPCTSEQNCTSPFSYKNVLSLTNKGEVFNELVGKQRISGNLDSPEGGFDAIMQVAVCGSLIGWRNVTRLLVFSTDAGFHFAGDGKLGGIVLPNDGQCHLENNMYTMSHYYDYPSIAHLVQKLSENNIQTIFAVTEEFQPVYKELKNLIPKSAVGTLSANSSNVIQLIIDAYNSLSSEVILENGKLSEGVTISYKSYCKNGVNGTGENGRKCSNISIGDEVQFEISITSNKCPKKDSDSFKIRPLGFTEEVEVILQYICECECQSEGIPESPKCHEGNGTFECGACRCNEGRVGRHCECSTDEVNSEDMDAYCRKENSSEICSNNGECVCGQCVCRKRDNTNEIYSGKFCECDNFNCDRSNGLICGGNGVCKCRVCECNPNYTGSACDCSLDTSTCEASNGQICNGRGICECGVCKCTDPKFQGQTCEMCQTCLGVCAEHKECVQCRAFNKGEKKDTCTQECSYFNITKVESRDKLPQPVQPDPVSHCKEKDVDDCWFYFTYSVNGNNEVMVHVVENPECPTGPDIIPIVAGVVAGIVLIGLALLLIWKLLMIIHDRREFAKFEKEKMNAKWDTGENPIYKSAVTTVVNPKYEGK
row,Binder,IC50
1,"R[Cys(β,β-pentamethylene)]GRGDWPCR (disulfide 2-9) [R(am-Pmp)GRGDWPCR]",0.05 µM
2,"R[Cys(β,β-pentamethylene)]GRGDTPCA (disulfide 2-9) [R(AminoPmp)GRGDTPCA]",0.03 µM
3,R[Pen]GHRGD[1Nal]RCR (disulfide 2-10) [R(Pen)GHRGD(1-Nal)RCR],10 µM
4,"R[Cys(β,β-pentamethylene)]GHRGD[Tyr(nHex)]RCR (disulfide 2-10) [R(Pmc)GHRGD(O-n-hexyl-Tyr)RCR]",2 µM
5,"D[Cys(β,β-pentamethylene)]GHRGD[Tyr(OMe)″]RCR (disulfide 2-10) [D(Pmc)GHRGD(O-Me-Tyr)RCR]",10 µM
6,"T[Cys(β,β-pentamethylene)]GHRGD[Tyr(OMe)(3)]RCR (disulfide 2-10; not fully specified; printed as T(Pmc)GHRGD(O-Me-Tyr)RCR) [T(Pmc)GHRGD(O-Me-Tyr)RCR]",10 µM
7,"R[Cys(β,β-pentamethylene)]GHRGD[Tyr(Me)]KCR (disulfide 2-10) [R(Pmc)GHRGD(O-Me-Tyr)KCR]",10 µM
8,"G[Cys(β,β-pentamethylene)]GHRGD[Tyr(Me)(3)]RCR (disulfide 2-10) [G(Pmc)GHRGD(O-Me-Tyr)RCR]",10 µM
9,B2,0.03 µM
10,R[Pen]GRGDTPCA (disulfide 2-9) [R(Pen)GRGDTPCA],0.08 µM
11,FRGDSPDG,2.4 µM
12,R[dPen]NPRGD[Tyr(OMe)(3)]RCR (disulfide 2-10) [R(dPen)NPRGD(O-Me-Tyr)RCR],10 µM
